Measured values reported in patent publication EP3639857B1, “ERYTHROPOIETIN COMPOSITION WITH IMPROVED STABILITY AND METHOD FOR PREPARING SAME” (Hankook Korus Pharmaceutical Co. Ltd., priority 2017, dated 2018).

What was measured:
[1] = Pharmacokinetics in rat after intravenous administration, erythropoietin in blood by ELISA, non-compartmental analysis; type: in vivo; details: SD rats
Protocol: Pharmacokinetics were measured by a method of intravenously administrating PEG-EPO conjugates to SD rats (male, 7 weeks old, body weight of 243.53±14.33 g). Specifically, after the administration of 3 µg/kg of EPO, PEG-EPO-TS, or PEG-EPO-Mircera, after 0, 0.5, 1, 2, 4, 8, 24 (1 d), 48 (2 d), 96 (4 d), and 168 ([…]) hours, blood was collected from the rats with an SST tube, centrifuged at 6,000 rpm for 10 minutes at 4°C, and stored at -80°C until the concentration measurement. The concentration of erythropoietin in the blood was measured by ELISA.
The pharmacokinetic analysis of the measured concentration results was performed by non-compartmental analysis (NCA), and the analysis was performed with the program of Phoenix WinNonlin 7.0 (Certara USA Inc., Princeton, NJ, USA). Individual NCA parameters were calculated.

B6D2F1 mice = test: Pharmacodynamics in mice after intraperitoneal administration, CBC test; type: in vivo; details: for RBC Increase (%) / Reticulocyte (×10^9/L) Increase (%): 7d vs 0d
Protocol: Pharmacodynamics were measured by a method of intraperitoneally administrating the PEG-EPO conjugates to B6D2F1 mice (female, 7 weeks old, body weight of 20.02±0.88 g). Specifically, 1.25, 2.5, 5, or 20 µg/kg of EPO, PEG-EPO-TS, or PEG-EPO-Mircera drugs were administered, after 7 days, 200 to 300 µl of the blood was collected from the facial vein by using a lancet into a micro EDTA tube (MiniCollect, Greiner Bio One International GmbH), the shaker was used to sufficiently mix the EDTA to prevent coagulation, and then, the CBC test was performed by using the ADVIA 2120i (Siemens AG) equipment within one hour. The results are shown in Table 10 below with the comparison of CBC results before drug administration.

[2] = i.p. 20 µg/kg, 0d (before drug administration)

PEG-EPO-Mircera: commercially available pegylated EPO (Mircera, Roche Korea Co., Ltd.), comparative group [reference compound]
concentration of erythropoietin in the blood 0 h ([1]; IV 3 µg/kg, 0 h): 0 | concentration of erythropoietin in the blood 0.5 h ([1]; IV 3 µg/kg, 0.5 h): 8.7 | concentration of erythropoietin in the blood 1h ([1]; IV 3 µg/kg, 1 h): 7.6 | concentration of erythropoietin in the blood 2h ([1]; IV 3 µg/kg, 2 h): 6.3 | concentration of erythropoietin in the blood 4h ([1]; IV 3 µg/kg, 4 h): 6.8 | concentration of erythropoietin in the blood 8h ([1]; IV 3 µg/kg, 8 h): 4.9 | concentration of erythropoietin in the blood 24h ([1]; IV 3 µg/kg, 24 h): 3.6 | concentration of erythropoietin in the blood 48h ([1]; IV 3 µg/kg, 48 h): 2.1 | concentration of erythropoietin in the blood 96h ([1]; IV 3 µg/kg, 96 h): 0.7 | concentration of erythropoietin in the blood 168h ([1]; IV 3 µg/kg, 168 h): 0.1 | AUCinf ([1]; IV 3 µg/kg, NCA, administration to infinity): 288.60 ng·h/mL | AUClast ([1]; IV 3 µg/kg, NCA, administration to last measured concentration): 284.59 ng·h/mL | C1 ([1]; IV 3 µg/kg, NCA, clearance): 1.8707 mL/min/kg | T1/2 ([1]; IV 3 µg/kg, NCA, half-life): 27.83 h | C0 ([1]; IV 3 µg/kg, NCA, initial concentration): 9.96 ng/mL | Cmax ([1]; IV 3 µg/kg, NCA, maximal concentration): 8.7 ng/mL | MRTlast ([1]; IV 3 µg/kg, NCA, mean residence time to last measured concentration): 36.87 h | AUC%Extrap (%) ([1]; IV 3 µg/kg, NCA, percentage of extrapolated area): 1.39% | Tmax ([1]; IV 3 µg/kg, NCA, time at maximal concentration): 0.5 h | VZ ([1]; IV 3 µg/kg, NCA, volume of distribution): 4.50667 L/kg | Vss ([1]; IV 3 µg/kg, NCA, volume of distribution at steady state): 4.40632 L/kg | half-life ([1]; IV administration): 27.8 h | Reticulocyte (×10^9/L) 0d (B6D2F1 mice; i.p. 1.25 µg/kg, 0d (before drug administration)): 228. 40 ×10^9/L | Reticulocyte (%) 7d (B6D2F1 mice; i.p. 1.25 µg/kg): 4.78% | RBC Increase (%) (B6D2F1 mice; i.p. 1.25 µg/kg): 15.03% | Reticulocyte (×10^9/L) Increase (%) (B6D2F1 mice; i.p. 1.25 µg/kg): 98.51% | Reticulocyte (×10^9/L) 0d (B6D2F1 mice; i.p. 2.5 µg/kg, 0d (before drug administration)): 143. 50 ×10^9/L | RBC(×10^6/µl) 7d (B6D2F1 mice; i.p. 2.5 µg/kg): 12. 16 ×10^6/µl | Reticulocyte (%) 7d (B6D2F1 mice; i.p. 2.5 µg/kg): 4.05% | RBC Increase (%) (B6D2F1 mice; i.p. 2.5 µg/kg): 37.25% | Reticulocyte (×10^9/L) Increase (%) (B6D2F1 mice; i.p. 2.5 µg/kg): 242.79% | Reticulocyte (×10^9/L) 0d (B6D2F1 mice; i.p. 5 µg/kg, 0d (before drug administration)): 134. 10 ×10^9/L | RBC(×10^6/µl) 7d (B6D2F1 mice; i.p. 5 µg/kg): 12. 01 ×10^6/µl | Reticulocyte (×10^9/L) 7d (B6D2F1 mice; i.p. 5 µg/kg): 1548. 00 ×10^9/L | RBC Increase (%) (B6D2F1 mice; i.p. 5 µg/kg): 31.26% | RBC(×10^6/µl) 0d (B6D2F1 mice; [2]): 10. 43 ×10^6/µl | Reticulocyte (×10^9/L) 0d (B6D2F1 mice; [2]): 194. 70 ×10^9/L | RBC(×10^6/µl) 7d (B6D2F1 mice; i.p. 20 µg/kg): 13. 55 ×10^6/µl | Reticulocyte (×10^9/L) 7d (B6D2F1 mice; i.p. 20 µg/kg): 2347. 00 ×10^9/L | RBC Increase (%) (B6D2F1 mice; i.p. 20 µg/kg): 29.91%
